Measured values: article PMC10858898
Several values for one entry are separate records, joined by “and”; a condition that tells them apart may be missing. Equal values may be shown once.

How the values were obtained:
[1] = target: MprE7-TH1 chimeric proteusin peptide; test: NMR titration; unlabeled SrpI titrated into 42.1 µM 15N-MprE7-TH1, MprE7-TH1:SrpI molar ratios 1:0 to 1:1, FAD 1:1 with SrpI; 100 mM NaCl, 20 mM sodium phosphate pH 7.5, 10% D2O; 25 °C, 800 MHz; TITAN 2D lineshape analysis with a two-state binding model; apparent KD; fits of subsets of the seven residues
[2] = target: MprE7-TH1 chimeric proteusin peptide; test: NMR titration; unlabeled SrpI titrated into 42.1 uM 15N-labeled MprE7-TH1, MprE7-TH1:SrpI molar ratios 1:0 to 1:1, FAD at 1:1 with SrpI; 100 mM NaCl, 20 mM sodium phosphate pH 7.5, 10% D2O, 25 °C; TITAN 2D lineshape analysis, two-state binding model; apparent

For SrpI brominase (enzyme), the Kd [1] was 21.9 µM and 36.9 µM and 22 µM.

For “SrpI brominase (flavin-dependent RiPP halogenase) (enzyme)”, the Kd [2] was 24.9 µM and the koff [2] was 3.7 s⁻¹.
